Test results as given in patent US6359127B1, “MCH2, an apoptotic cysteine protease, and compositions for making and methods of using the same” (Thomas Jefferson University, priority 1995, dated 2002).

B1: Mch2α: full length Mch2 isoform, 293 amino acid ~34 kDa Ced-3/ICE-like cysteine protease, SEQ ID NO:5 (protein)
chain: MSSASGLRRGHPAGGEENMTETDAFYKREMFDPAEKYKMDHRRRGIALIFNHERFFWHLTLPERRRTCADRDNLTRRFSDLGFEVKCFNDLKAEELLLKIHEVSTVSHADADCFVCVFLSHGEGNHIYAYDAKIEIQTLTGLFKGDKCHSLVGKPKIFIIQACRGNQHDVPVIPLDVVDNQTEKLDTNITEVDAASVYTLPAGADFLMCYSVAEGYYSHRETVNGSWYIQDLCEMLGKYGSSLEFTELLTLVNRKVSQRRVDFCKDPSAIGKKQVPCFASMLTKKLHFFPKSN
B2: Mch2β: alternatively spliced shorter Mch2 isoform, 204 amino acid ~23 kDa protein, SEQ ID NO:7 (protein)
chain: MSSASGLRRGHPAVSTVSHADADCFVCVFLSHGEGNHIYAYDAKIEIQTLTGLFKGDKCHSLVGKPKIFIIQACRGNQHDVPVIPLDVVDNQTEKLDTNITEVDAASVYTLPAGADFLMCYSVAEGYYSHRETVNGSWYIQDLCEMLGKYGSSLEFTELLTLVNRKVSQRRVDFCKDPSAIGKKQVPCFASMLTKKLHFFPKSN
B3: CPP32: human Cpp32 (Mch1) apoptotic cysteine protease, expressed as GST-fusion protein (protein)
chain: MENTENSVDSKSIKNLEPKIIHGSESMDSGISLDNSYKMDYPEMGLCIIINNKNFHKSTGMTSRSGTDVDAANLRETFRNLKYEVRNKNDLTREEIVELMRDVSKEDHSKRSSFVCVLLSHGEEGIIFGTNGPVDLKKITNFFRGDRCRSLTGKPKLFIIQACRGTELDCGIETDSGVDDDMACHKIPVEADFLYAYSTAPGYYSWRNSKDGSWFIQSLCAMLKQYADKLEFMHILTRVNRKVATEFESFSFDATFHAKKQIPCIVSMLTKELYFYH
B4: ICEγ: isoform of interleukin-1 β converting enzyme (ICE), expressed as GST-fusion protein (protein)
chain: MADKVLKEKRKLFIRSMGEAPQAVQDNPAMPTSSGSEGNVKLCSLEEAQRIWKQKSAEIYPIMDKSSRTRLALIICNEEFDSIPRRTGAEVDITGMTMLLQNLGYSVDVKKNLTASDMTTELEAFAHRPEHKTSDSTFLVFMSHGIREGICGKKHSEQVPDILQLNAIFNMLNTKNCPSLKDKPKVIIIQACRGDSPGVVWFKDSVGVSGNLSLPTTEEFEDDAIKKAHIEKDFIAFCSSTPDNVSWRHPTMGSVFIGRLIEHMQEYACSCDVEEIFRKVRFSFEQPDGRAQMPTTERVTLTRCFYLFPGH
B5: ICE: mammalian interleukin-1 β converting enzyme, expressed from recombinant ICE baculovirus as control (protein)
chain: B4 chain

How the values were obtained:
human PARP = assay: Western blot analysis of PARP cleavage after incubation with recombinant enzyme; assay type: biochemical; settings: Western blot with 4C10-5 antibody
Procedure: In apoptotic cells, nuclear proteins such as PARP, lamins and the 70-kDa protein component of the U1 small nuclear ribonucleoprotein are cleaved specifically by an unknown ICE-like cysteine protease(s). Cleavage of human PARP at the DEVD (SEQ ID NO:9) site (amino acid 211-214) would generate a large protein product of predicted molecular mass of 89.3 kDa (amino acids 215-1014). Western blot analysis of human PARP after incubation with recombinant Mch2α, Mch2β, ICEγ or CPP32 was performed using the 4C10-5 antibody. This antibody recognizes an epitope in the 41 kDa C-terminal chymotryptic fragment of PARP. CPP32 cleaved PARP to generate a major band of ˜90 kDa and a minor band of 57 kDa. The 90 kDa band was most probably generated by cleaving the DEVD (SEQ ID NO:9) site at residue 214 of PARP. This cleavage product is believed to correspond to an 85 kDa PARP cleavage product which has been described in apoptotic cells. The 57 kDa cleavage product is probably generated by cleavage at a site C-terminal to the DEVD (SEQ ID NO:9) site. This product was not detected with the C-2-10 antibody used in a previous study. This is probably because it recognizes an epitope that is N-terminal to the epitope that is recognized by the 4C10-5 antibody used in the present study. Mch2α also cleaved PARP to generate a major product of ˜83 kDa and a minor product of ˜57 kDa similar to that obtained with CPP32. PARP was not cleaved by Mch2β or ICEγ. […] Furthermore, the deletion in Mch2β abrogates its enzymatic activity.

DEVD-AMC (SEQ ID NO:3) = assay: cleavage of fluorogenic peptide DEVD-AMC by bacterial extracts expressing GST-fusion enzymes; assay type: biochemical; settings: for ability to cleave the DEVD substrate: total bacterial extracts, GST-fusion proteins
Procedure: (§1) To determine the enzymatic activity of Mch2, CPP32 or ICE, these enzymes were expressed in E. coli as fusion proteins with glutathione S-transferase (GST). A GST-CPP32-p20 fusion protein that contains amino acids 1-175 of CPP32 and a GST nonfusion protein were used as controls. After induction with IPTG, bacterial extracts were prepared from E. coli expressing the recombinant fusion proteins. The extracts were absorbed to glutathione-Sepharose resin, washed several times and then analyzed by SDS-PAGE. The ICEγ, CPP32 and Mch2α preparations containing GST-fusion proteins ranged in size from ˜28-35 kDa. The GST nonfusion protein control migrated as a ˜27-28 kDa protein. […] Aps26 of ICEγ which corresponds to Asp 119 of ICEα is a site that is cleaved during ICE activation. Cleavage at this site would generate a GST-fusion protein with a predicted molecular mass of ˜29 kDa that might correspond to the 31 kDa band. Cleavage at Asp 3 of ICEγ, although it is not a known ICE cleavage site, could generate the 28 kDa band (lane 2). Similar to the GST-ICEγ preparation, the GST-CPP32 and GST-Mch2 preparations contain smaller than predicted GST fusion products. The GST-CPP32 fusion product migrates as a ˜29-30 kDa protein. Cleavaae at Asp9 or Asp28 of CPP32 would generate products with predicted molecular masses of ˜27.3 kDa or ˜29.4 kDa, respectively. Based on the observed size of the GST-CPP32 product, CPP32 is most probably cleaved at Asp28, although it is possible that both sites are cleaved during CPP32 autoprocessing. Unlike the GST-CPP32 which contains full length CPP32, the GST-CPP32-p20 product which contains a truncated CPP32 migrates as a ˜46 kDa protein that agreed with its predicted molecular mass. […] Therefore if CPP32 is cleaved at Asp28, CPP32 appears to be made up of two subunits of relative molecular masses of 17 kDa and 11 kDa. However, the exact Asp cleavage sites that are utilized to generate active CPP32 remains to be determined by amino acid sequencing. The GST-Mch2α preparation contains two major bands that migrate as ˜31-32 kDa and ˜34-35 kDa proteins. This is consistent with cleavage at Asp23, Asp32 or Asp40 of Mch2α. These GST-Mch2α cleavage products are larger than the GST-CPP32 product because of the presence of extra 33 amino acids in the GST-Mch2α fusion construct that are derived from the 5′ untranslated region of Mch2α. A minor band of ˜27 kDa is also present in this preparation that could be due to cleavage at a site near the C-terminus of the GST peptide itself. The majority of GST-Mch2β was expressed in E. coli in […] and was not cleaved.
After establishing that Mch2 and CPP32 can autoprocess in bacteria, their enzymatic activity were tested using two fluorogenic peptide substrates, YVAD-AMC (SEQ ID NO:8) and DEVD-AMC (SEQ ID NO:3). […]

Sf9 cells = assay: apoptosis of Sf9 cells infected with recombinant baculovirus expressing the protein; assay type: cell-based, insect; settings: polyhedron promoter
From the text: To test whether expression of Mch2α has a similar apoptotic effect, Sf9 cells were infected with a recombinant baculovirus expressing Mch2α or Mch2β under the polyhedron promoter. Cells were also infected with the wild type virus and the recombinant ICE baculovirus as controls.

YVAD-AMC (SEQ ID NO:8) = assay: cleavage of fluorogenic peptide YVAD-AMC by bacterial extracts expressing GST-fusion enzymes; assay type: biochemical; settings: for ability to cleave the YVAD substrate: total bacterial extracts, GST-fusion proteins
Procedure: as §1
After establishing that Mch2 and CPP32 can autoprocess in bacteria, their enzymatic activity were tested using two fluorogenic peptide substrates, YVAD-AMC (SEQ ID NO:8) and DEVD-AMC (SEQ ID NO:3). The YVAD (SEQ ID NO:8) […] is the ICE cleavage site in pro-IL1β and the DEVD (SEQ ID NO:9) tetrapeptide is a site present in PARP that is cleaved by an ICE-like protein during apoptosis. The enzymatic activities of Mch2α, Mch2β, CPP32 and ICEγ, in total bacterial extracts from cells expressing these enzymes as GST-fusion proteins was studied using the YVAD-AMC (SEQ ID NO:8) and DEVD-AMC (SEQ ID NO:3) tetrapeptides as substrates. […] The purified GST-fusion products or the GST control extract had no enzymatic activity with either of the substrates.

Molecule | cleavage of PARP (human PARP) | ability to cleave the DEVD substrate (DEVD-AMC (SEQ ID NO:3)) | characteristic signs of apoptosis (membrane blebbing, nuclear fragmentation and condensation, internucleosomal DNA cleavage) (Sf9 cells) | viability of infected cells (Sf9 cells) | ability to cleave the YVAD substrate (YVAD-AMC (SEQ ID NO:8)) | activity in cleaving the DEVD substrate relative to ICEγ or Mch2α (DEVD-AMC (SEQ ID NO:3); from initial rate of the reactions, assuming similar amount of each enzyme in extracts) [fold] | activity in cleaving the YVAD substrate relative to CPP32 (YVAD-AMC (SEQ ID NO:8); ICEγ versus CPP32)
B1 | cleaved PARP | able to cleave | several characteristic signs of apoptosis | decrease in viability | No detectable enzymatic activity | – | –
B2 | not cleaved | – | – | – | No detectable enzymatic activity | – | –
B3 | cleaved PARP | able to cleave | – | – | able to cleave | ~150 | –
B4 | not cleaved | able to cleave | – | – | able to cleave | – | about 3 fold
B5 | – | – | several characteristic signs of apoptosis | – | – | – | –
